Laboratory results reported in PMC4231716.

Biological target: HIV-1JR-FLΔCT Env trimer (HIV-1 JR-FL) (UniProt Q75760)
Assay: flow cytometry on cells

C34-Ig, fusion protein of an immunoglobulin Fc and the gp41 HR2 peptide (Fc fusion)
percent of Env-expressing cells binding C34-Ig: 37%
